Test results as given in the nanobody polyreactivity screen of Harvey et al. (2022).

Test: yeast display, Sf9 membrane polyspecificity reagent, FACS + sequencing; frameworks hold sequencing errors
In short: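 A synthetic nanobody library was expressed on Saccharomyces cerevisiae BJ5465 by galactose induction for 36–48 hours. The library was stained for 1 hour at 4 °C with 10% biotinylated, detergent-solubilized Sf9 membrane reagent and enriched with streptavidin microbeads before FACS. Low and high (top ~1%) gates were set on anti-HA fluorescence for expression and streptavidin fluorescence for reagent binding, and each polyreactivity label reflects the gate of origin.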

Row | Sequence | polyreactivity (PSR sort gate)
1 | QVHLVESGGGLVQAGGSLRLSCAASGITFKRYAMGWYRQAPGKERELVAAISDIGGRTYYADSVKGRFTISRDNAKNTVYLQMNSLKPEDTAGYFCAADYYSPVDWYYYWGQGTQVTVSS | high polyreactivity
2 | QVQLVESGGGLVQAGGSLRLSCAASGSTFDNYALGWYRQAPGKERELVAAINWSGSSTYYADSVKGRFTISRDNAKNTVYLQMNSLKPEDTAVYYCNKTGVTPKTATDGDYWGQGTQVTVSS | low polyreactivity
3 | QVHLVESGGGLVKAGGSLRLSCAASGRTFPYNAMGWYRQAPGKERELVAAISSGGSTNYADSVKGRFTISRDNAKNTVYLQMNSLKPEDTAVYYCATKYQRRPYRYYYWGQGTQVTVSS | low polyreactivity
4 | QDQRVESGGGLVQAGGSLRLSCAASGSIRGYAMGWYRQAPGKERELVASITWSGGSTYYADSVKGRFTISRDNSKNTVYLQMNSLKPEDPAVFYCAARPSPYASFFRPYDYWGQGTQVTVSS | low polyreactivity
5 | QVQLVESAGGLVQAGGSLRLSCAASGRIFNSNAMGWYRQAPGKERELVASITSRGDSTFYADSVKGRFTISRDTAKNTVYLQMNSLKPEDTAVYYCAANGLYYRTPPVYSYDYWGQGTQVTVSS | low polyreactivity
6 | QVQLVESGGGLFQAGGSLRLSCAASGFIFRYYAMGWYRQAPGKERELVAAITRGGSTYYADSVKGRFTISRDNAKNTVYLQMNSLKPEDTAVYDCAARLYTQYYYWGQCTQVTVSS | high polyreactivity
7 | QVQLVESGGGLVQAGGSLRLSCAASGFTFHNNVMGWYRQAPGKERELVATISKSGGSTYYADSVKGRFTISRDNAKNTVYLQMNSLKPEDTAVYYCARRYRDYGRYGYWGQGTQVTVSS | high polyreactivity
8 | QVQLVESGGGLVQAGGSLRLSCAASGSIFSRYTMGWYRQAPGKERELVARINSSGTSTYYADSVQGRFTIARDNAKNTVYLQMNSLKPEDTAVYYCAAQVDTQYWDFDYWGQGTQVTVSS | low polyreactivity
9 | QVHLVESGGGLVQAGGSLRLSCAASGFTFYRYAMGWYRQAPGKDRELVAAITWSGGSTYYADSVKGRFTISRDNAKNTVYLQMNSLKPEDTAVYYCAADIYDGGFDYWGQGTQVTVSS | low polyreactivity
10 | QVQLVESGRGLVQAGGSLRLRCAASGSTFVYNTMGWYRQAPGKEMELVASISSDGNTYYADSVKGRFTISRDNAKNTVYLQMNSLKPEDTAVFYCGARYYYDWRFVGYDYWGQGTQVTVSS | low polyreactivity
11 | QVQLVESGGGLVQAGGSLRLSCADSGNTFKGYAMGWYRQAPGKERELVAAISWSGSSTYYADSVKGRFTISRDNAKNTVYLQMNSLKPEDTAVYYCAVTYRRFYYWGQGTQVTVSS | high polyreactivity
12 | QVQLVESGGGLVQAGRSLRLSCAASGLTFSAYAMGWYRQAPGKEREFVAAITDSDGSTYYADSVKGRFTITRDNAKNTVYLQMNSLKPEDTAVYYCAASGSWYYGNWSGGYDYWGQGTQVTVSS | low polyreactivity
13 | QVLLVESGGGLVQAGGSLRLSCAASGRIFDDYAMGWYRQAPGKESELVAAITSGGRTYYADSVKGRFTISRDNAKNTVYLKMHSLKPDDTAVYYCAAQYGWFYEFVYWGQGTPVTVSS | high polyreactivity
14 | QVQLVESGGCLVQAGGSLRLSCAASGRIFYDNVMGLYRQAPGKEREFVAAISRRGGSTDYADSVKGRFTISRDNAKNTVYLQMNSLKPEDTAVYYCADDAPGADFDYWGQGTQVTVSS | low polyreactivity
15 | QVQLVESGGGLVQAGGSLRLSCAASGSIFASYAMGWYRQAPGKERELVAVITRSGGSTYYADSVKGRFTISRDNAKNTVYLQMNSLKPEDTAVYYCAAQYGRTYYSRREYWGQGTQVTVSS | high polyreactivity
16 | QVQLVESGGRLVQAGGSLRLICAASGSIFGHYAMGWYRQAPRKEREFVAAIDWSGGSSYYADSVKGRFTISRDNAKNTVYLQMISLKPEDTAVYYCAARVRERYYWGQGTQVTVSS | high polyreactivity
17 | QVQLVESGGGLVQAGGSLRLTCAASGSTFVRYVMGWYRQAPGKERELVAAISRRGGSTYYADSVKGRFTISRDNANNTVYLQMNSLKPEDTAVYYCARTVGYRTLLESDSWGQGTQVTVSS | high polyreactivity
18 | QVQLVESGGGLVQAGGSLRLSCAASGRTFRYYTMGSYRPAPGKEREFVAAISSTGGTYYADSVKGRFTISRDNAKNTVYLQMNSLKPEDTAVYYCAKVYFWGALSPDKYDEDYWGQGTQVTVSS | low polyreactivity
19 | QVQLVESGGGLVQAGCSLRLSCASSGRIFYGNAMGWYRQAPGKERELVAAISKSGASTYYADSVKGRFTISRDNAKNTVYLQMNSLKPEDTAVYYCAAETPRRKYNYWGQGSQVTVSS | high polyreactivity
20 | QVQLVESGGGLVQAGGSLRLSCAASGRTFWRYAMGWYIQAPGKERELVAAISSSGITYYADSVKGRFTISRDNAKNTVYLQMNSLKPEDTAVYYCAVRWGRGFWGQGTQVTVSS | high polyreactivity
21 | QVQLVESGGGLVQAGGSLRLSCAASGSIFPANAMGWYRQAPGKERELVAAISRRGGNTNYADSVKGRFTISRDNAKNTVYLQMNSLKPEDTAVYYCAAYYYYRRYDYWGQGTQVTVSS | high polyreactivity
22 | QVQLVESGGGLVQAGGSLRLSCAASGFIFEPYAMGWYRQAPGKERELVAAISSGGSTYADSVKGRFTISRDNAKNTVYLQMNSLKPEDTAVYYCAADSYYSVWGFYYWGQGTQVTVSS | low polyreactivity

Row | Sequence | polyreactivity (PSR sort gate)
23 | QFQLVESGGGLVQAGGSLRLSCAASGRTFKKYAMGWYRQAPGKESELVAAITFSGGSTYYADSVKGRFTISRDNANNTVYLQMNSLKPEDTAVYYCAAKRLGGSYGSDYWGQGTQVTVSS | high polyreactivity
24 | QVQLVESGGGLVLAGGSLRLSCAASGSIFIHYAMGWYRQARGKERELVAAITGDGNTTYADSVKGRFTISRDNAQNTVNLPINSLKPEDTAVYSCAVTIVDYVWAFDYWGQGTQVNVSS | low polyreactivity
25 | QVQLVESGGGLVQAGGSLRLSCAASGITFGRNAMGWYRQAPGKERELVAAISRGGSTNYADSVKGRFTISRDNAKNTVYLQMNSLKPEDTAVYYGNARSWPHGSWIPIHRRSGYWGQGTQVTVSS | high polyreactivity
26 | QVQLVESGGGLVQAGGSLRLSCAASGRTFQVYAMGWYRQAPGKERELVAAISLTGGGTYYADSVKGRFTISRDNAKNTVYLQMNSLKPEDTEVYYCAVRRRTHLGFLYEYWGQGTQVTVSS | high polyreactivity
27 | QVQLVESGGGLVQAGGSLRLSCAASGSIFRYYAMGWYRQAPGKERELVAAISWDGGTTYYADSVKGRFTISRDNAKNTVYLQMNSLKPEDPAVYYCNVEFPLSSYGYDYWGQGTQVTVSS | low polyreactivity
28 | QVQLVESGGGLVQAGGSLRLSCAASGRTFAYYTMGWYRQAPGKERELVAAITSSGGSTYYADSVKGRFTISRDNAKNTVYLQMNSLKPEDTAVYYCNAYGLRWASRLGYDYWGQGTQVTVSS | high polyreactivity
29 | QVQLQESGGGLVQAGGSLRLSCAASGSISAVGAMGWYRQAPGKEREFAASVNWGTNTNYADSVKGRFTISRDNAKTTLYLQMNSLKPEDTAVYYCAADVQITSAGGDYDYWGQGTQVTVSS | low polyreactivity
30 | QVQLVESGGGLVQAGGSLRLSCAASGSTFYSYAMGWYRQAPGKERELVAAITKGGGSTYYADSVKGRFTISRDNAKNTVYLQMNSLKPEDTAVYYCAAPGLYWYYTRSGYDYWGQGTQVTVSS | high polyreactivity
31 | HDQLVESGGGLLQAGGSLRLSCAASGITLYRYVMGWYRQAPGKERELVAYIAGRGTSTYYSDSVKGRFTISRDHAKNTVYLQMNSLKPEDTAVYFCNAEYTKTGALVIPYTYYYAEDYWGQGTQVTVSS | low polyreactivity
32 | QFQLVESGGGLVQAGGSLRLSCAASGIIFGRYTKGWYRDAPGKETELVAAITSSGITYYADSVKGRFTISRDNAKNTVYLQMNSLKPEDTAVYYCAADVGYWGRSRGYPSDDYDYWGQGTQVTVSS | low polyreactivity
33 | QVQLVESGGGLVQAGGSLRLSCAASGFTFEFNVMGWYRQAPGKERELVASIRWGSTSYADSVKGRFTISRDNAKNTVYLQMNSLKPEDTALYDCAAVTYDYWRQGTQVTVSS | low polyreactivity
34 | QVQLVESGGGLVQAGGSLRLSCAASGLTFRVYAMVWYRQAPGKERELVAAISKRGGSTYYADSVKGRFTISRDNAKKTVYLQMNSLKPEENAVYSCAADSDNSVRLAGSGGNYCGQGTQVTVSS | high polyreactivity
35 | QVQLVESGGGLVQAGGSLRLSCAASASTLNGNAKAWYRQAPGKDRELVAAITTSGGSTYYADSVKGRFTISRDNAKNTDSLQMHSQNPEDTAVYYCNKLIGRRYGWANGYDYWGQGTQVTVSS | low polyreactivity
36 | QVQLVESGGGLVQAGGSLRLSCAASGLIFTWNAMGWYRQAPGKEREFVAAISTGGSTSYADSVKGRFTISRDNAKNTVYLQMNRLKPEDTAVYYCARDSSIWSHGSWYDYWGQGTQVTVSS | low polyreactivity
37 | QVQLVESGGGLVQAGGSLRLRCPASGRIIGSYTMGSYRQAPGKERELVAAISFSGARTRYADSVKGRFTISRDNAKNTVYFQMNSLKAEDTAVYYCAARFTGGKYDYWGLGTQVTVSS | high polyreactivity
38 | QVQLVESGGGLVQAGGSLRLSCAASGIILLRYTMGWYRQAPGKERELVAAISRSAGRTYYADSVKGRFTISRDNAKNTVYLQMNSLKPEDTAVYYCAAAFVSVRKRYGYWGHGTQVTVSS | high polyreactivity
39 | QVQLVESGGGLVQAGGSLRLSCAPSGFIYSKYVIGWNRPAPGKERELVAAITRSGSSTYYADSVKGRFTISRDNAKNTDYLQMNSLKPEDTAVYYCAADGGYYDDDYWGQGTQVTVSS | high polyreactivity
40 | QVQLVESGGGLVQAGGSLRLSCAASGSTFRSNAMGWYRQAPGKERELVASINWSGDSTYYADSVKGRFTISRDNAKNTVYLQMNSLKPEDTAVYYCNAVVDTTEYPYEYDYWGQGTQVTVSS | low polyreactivity
41 | QVQLVESVGGLVQAGGILRLSCAASGRTFTLNAMGWYRQAPGKERELVATISRRGGSTYYADSVKGRFTISRDNAKNTVYLQMISLKPEDTAVYDCNVDRLGKRYDNWGQGSQVTVSS | low polyreactivity
42 | QVQLVESGGGLVQAGGSLRLSCAASGRTFAPYAMAWYRQAPGKERELVAVISSSGGRTYYADSVKGRFTISRDNAKNTVYLQMNSLKPEDTAVYYCAADVYGYRFFKTGRYDYWGQGSQVTVSS | high polyreactivity
43 | QVQLVESGGGLVQAGGSLRLSCAACGRILTYYAMGWYRQAPGKERELVAAISWRAGSTYYADSVKGRFTISRDNAKNTVYLQMNSLKPEDTAVYYCAAKPYYIPTRTYSHYNYWGQGTQVTVSS | high polyreactivity
